Assay results reported in patent US20190359687A1 (Bayer, published 2019).
Numbering of substitutions follows the chain as printed. Numbers in names are those of the source.

T1: glycophorin A peptide GP5 (human, biotin at the N-terminus)
T1 construct: Residues 42 to 61 of the human glycophorin A extracellular domain
T1 peptide: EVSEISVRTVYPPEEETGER

T2: Rhesus monkey glycophorin A on Rhesus monkey red blood cells (Rhesus monkey, UniProt A0A1D5Q349 20-150)
T2 construct: whole, on cells; also called Rhesus RBC; monkey GPA
T2 sequence: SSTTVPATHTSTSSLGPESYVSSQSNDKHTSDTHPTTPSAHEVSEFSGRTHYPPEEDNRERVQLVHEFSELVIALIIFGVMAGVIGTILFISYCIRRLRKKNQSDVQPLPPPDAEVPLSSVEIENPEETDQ

T3: human glycophorin A on human red blood cells or red blood cell membranes (human, UniProt P02724 20-150)
T3 construct: whole, on cells; also called hRBC; human RBC membranes
T3 sequence (looked up): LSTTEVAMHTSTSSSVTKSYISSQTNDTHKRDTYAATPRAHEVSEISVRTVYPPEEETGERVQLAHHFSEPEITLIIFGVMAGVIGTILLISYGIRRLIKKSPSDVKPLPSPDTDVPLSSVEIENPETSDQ

T4: native human glycophorin A protein (human, UniProt P02724 20-150)
T4 construct: mature; also called Hu-nat GPA
T4 sequence (looked up): T3 sequence (looked up)

T5: recombinant human glycophorin A ectodomain protein (human, UniProt P02724 20-91)
T5 construct: 72 amino acids of the extracellular region; also called Hu-rec GPA
T5 sequence: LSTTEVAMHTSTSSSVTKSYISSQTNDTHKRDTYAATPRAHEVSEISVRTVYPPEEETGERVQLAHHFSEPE

T6: human glycophorin A in the red blood cell membrane (human, UniProt P02724 20-150)
T6 construct: whole, on cells; used for intact RBC, isolated RBC membranes and transfected cells; the assay field tells which; also called GPA; hGPA
T6 sequence (looked up): T3 sequence (looked up)

B1: TPP-8744 FVIII-scFv fusion protein (other)
chain: ATRRYYLGAVELSWDYMQSDLGELPVDARFPPRVPKSFPFNTSVVYKKTLFVEFTDHLFNIAKPRPPWMGLLGPTIQAEVYDTVVITLKNMASHPVSLHAVGVSYWKASEGAEYDDQTSQREKEDDKVFPGGSHTYVWQVLKENGPMASDPLCLTYSYLSHVDLVKDLNSGLIGALLVCREGSLAKEKTQTLHKFILLFAVFDEGKSWHSETKNSLMQDRDAASARAWPKMHTVNGYVNRSLPGLIGCHRKSVYWHVIGMGTTPEVHSIFLEGHTFLVRNHRQASLEISPITFLTAQTLLMDLGQFLLFCHISSHQHDGMEAYVKVDSCPEEPQLRMKNNEEAEDYDDDLTDSEMDVVRFDDDNSPSFIQIRSVAKKHPKTWVHYIAAEEEDWDYAPLVLAPDDRSYKSQYLNNGPQRIGRKYKKVRFMAYTDETFKTREAIQHESGILGPLLYGEVGDTLLIIFKNQASRPYNIYPHGITDVRPLYSRRLPKGVKHLKDFPILPGEIFKYKWTVTVEDGPTKSDPRCLTRYYSSFVNMERDLASGLIGPLLICYKESVDQRGNQIMSDKRNVILFSVFDENRSWYLTENIQRFLPNPAGVQLEDPEFQASNIMHSINGYVFDSLQLSVCLHEVAYWYILSIGAQTDFLSVFFSGYTFKHKMVYEDTLTLFPFSGETVFMSMENPGLWILGCHNSDFRNRGMTALLKVSSCDKNTGDYYEDSYEDISAYLLSKNNAIEPRSFSQNGGGGSTGGTGGSSGGGTGSGGGGTGGSGGTDIQLTQSPSFLSASVGDRVTITCRASSSVSYIYWFQQKPGKAPKLLIYATSTLQSGVPSRFSGSGSGTEYTLTISSLQPEDFATYYCHQRNSFPYTFGQGTKLEIKGGGGSGGGGSGGGGSGGGGSEVQLVQSGAEVKKPGASVKVSCKASGYTFTRYTIHWVRQAPGQGLEWMGYINPSSGYTRYNPKFKGRVTMTRDKSTSTAYMELRSLRSDDTAVYYCWTGTRDYWGQGTTVTVSSGGGGSQNPPVLKRHQREITDENQSPRSFQKKTRHYFIAAVERLWDYGMSSSPHVLRNRAQSGSVPQFKKVVFQEFTDGSFTQPLYRGELNEHLGLLGPYIRAEVEDNIMVTFRNQASRPYSFYSSLISYEEDQRQGAEPRKNFVKPNETKTYFWKVQHHMAPTKDEFDCKAWAYFSDVDLEKDVHSGLIGPLLVCHTNTLNPAHGRQVTVQEFALFFTIFDETKSWYFTENMERNCRAPCNIQMEDPTFKENYRFHAINGYIMDTLPGLVMAQDQRIRWYLLSMGSNENIHSIHFSGHVFTVRKKEEYKMALYNLYPGVFETVEMLPSKAGIWRVECLIGEHLHAGMSTLFLVYSNKCQTPLGMASGHIRDFQITASGQYGQWAPKLARLHYSGSINAWSTKEPFSWIKVDLLAPMIIHGIKTQGARQKFSSLYISQFIIMYSLDGKKWQTYRGNSTGTLMVFFGNVDSSGIKHNIFNPPIIARYIRLHPTHYSIRSTLRMELMGCDLNSCSMPLGMESKAISDAQITASSYFTNMFATWSPSKARLHLQGRSNAWRPQVNNPKEWLQVDFQKTMKVTGVTTQGVKSLLTSMYVKEFLISSSQDGHQWTLFFQNGKVKVFQGNQDSFTPVVNSLDPPLLTRYLRIHPQSWVHQIALRMEVLGCEAQDLY
notes: The entry is the mature protein; mostly a 2 chain molecule
B2: Hu6C12-11 (antibody, V domains shown)
VH: EVQLVQSGAEVKKPGASVKVSCKASGYTFTTYTIHWVRQAPGQGLEWMGYINPSSDYTRYNPKFKDRVTMTTDTSTSTAYMELRSLRSDDTAVYYCATGTRDYWGQGTTVTVSS
VL: DIQLTQSPSFLSASVGDRVTITCSAASSVSYIYWYQQKPGKAPKLLIYSTSTLPSGVPSRFSGSGSGTEYTLTISSLQPEDFATYYCHQRNSFPFTFGQGTKLEIK
notes: IgG format; VH.1b + Vk.1a
B3: Hu6C12-14 (antibody, V domains shown)
VH: B2 VH with M70L
VL: B2 VL
notes: IgG format; VH.1e + Vk.1a
B4: Hu6C12-21 (antibody, V domains shown)
VH: B2 VH with M70L, A97Q, T98R
VL: B2 VL with Y35F
notes: IgG format; VH.1d + Vk.1b
B5: TPP-5675, Hu6C12-24 Fab variant VH: (I48M, L70M, T72R) (Fab, V domains shown)
VH: B2 VH with T72R, T74K, A97Q
VL: DIQLTQSPSFLSASVGDRVTITCSAASSVSYIYWFQQKPGKAPKLLIYSTSTLPSGVPSRFSGSGSGTEYTLTISSLQPEDFATYYCHQRNSFPFTFGQGTKLEIKR
notes: Built on the parental Fab TPP-4935
B6: TPP-5836, Hu6C12-24 Fab variant VL: (S24R, A26S, S49A, P54Q, F95Y); VH: (I48M, L70M, T72R) (Fab, V domains shown)
VH: B2 VH with T72R, T74K, A97Q
VL: B5 VL with S24R, A26S, S49A, P54Q, F95Y
notes: as for B5
B7: TPP-5838, Hu6C12-24 Fab variant VL: (S24R, A26S, S49A, P54Q, F95Y); VH: (I48M, D66G, L70M) (Fab, V domains shown)
VH: B2 VH with D66G, T74K, A97Q
VL: B5 VL with S24R, A26S, S49A, P54Q, F95Y
notes: as for B5
B8: TPP-5840, Hu6C12-24 Fab variant VL: (S24R, A26S, S49A, P54Q, F95Y); VH: (L70M, T72R) (Fab, V domains shown)
VH: B2 VH with M48I, T72R, T74K, A97Q
VL: B5 VL with S24R, A26S, S49A, P54Q, F95Y
notes: as for B5
B9: TPP-5704, Hu6C12-24 Fab variant VL: (N91D) (Fab, V domains shown)
VH: B2 VH with M48I, M70L, T74K, A97Q
VL: B5 VL with N91D
notes: as for B5
B10: TPP-5837, Hu6C12-24 Fab variant VL: (S24R, A26S, S49A, P54Q, F95Y); VH: (I48M, D66G) (Fab, V domains shown)
VH: B2 VH with D66G, M70L, T74K, A97Q
VL: B5 VL with S24R, A26S, S49A, P54Q, F95Y
notes: as for B5
B11: TPP-5678, Hu6C12-24 Fab variant VH: (I48M, D66G, L70M, T72R) (Fab, V domains shown)
VH: B2 VH with D66G, T72R, T74K, A97Q
VL: B5 VL
notes: as for B5
B12: TPP-5842, Hu6C12-24 Fab variant VL: (S24R, A26S, S49A, P54Q, F95Y); VH: (D66G, L70M, T72R) (Fab, V domains shown)
VH: B2 VH with M48I, D66G, T72R, T74K, A97Q
VL: B5 VL with S24R, A26S, S49A, P54Q, F95Y
notes: as for B5

Target: T1, glycophorin A peptide GP5
Experiment: Octet, GP5 peptide on the probe, fusion protein in solution, 1:1 fit

| Kd | koff | kon | Binder |
| --- | --- | --- | --- |
| 7.35 nM | 0.0048 s⁻¹ | 652000 M⁻¹ s⁻¹ | B1 |

Target: T2, Rhesus monkey glycophorin A on Rhesus …
Experiment: FACS, RBC Rh02

| fluorescence intensity | Binder |
| --- | --- |
| 1440 | B2 |
| 1480 | B3 |
| 1330 | B4 |

Target: T2, Rhesus monkey glycophorin A on Rhesus …
Experiment: FACS, RBC Rh01
Procedure: (§1) The binding of the humanized variants to intact red blood cells (RBC) from humans (Hu01 to 03; 3 individuals), Rhesus monkey (Rh01 to 03; 3 individuals) and Cynomolgus monkey (Cy01 to 02; 2 individuals) was measured by fluorescence activated cell sorting (FACS).

| fluorescence intensity | Binder |
| --- | --- |
| 1530 | B2 |
| 1480 | B3 |
| 1470 | B4 |

Target: T3, human glycophorin A on human red blood …
Experiment: ELISA, Fab on coated human RBC membranes
Procedure: These membranes are prepared by first isolating red blood cells from citrated whole blood. Citrated whole blood is layered on to Ficol and centrifuged at low speed for 20 minutes to pellet the red blood cells. The supernatant containing plasma and other blood cells is discarded and the red blood cell pellet is subsequently washed 3 times in 10 cell volumes of phosphate buffered saline (PBS). A 10 ml pellet of purified red blood cells is resuspended in 30 ml of cold low osmorality 20 mM phosphate buffer (pH7.4) and incubated for 30 mins to break open the RBC. After Centrifugation at 10,000 rpm for 30 min at 5° C. the hemoglobin containing supernatant is discarded. To the membrane pellet another 30 ml of 20 mM phosphate buffer is added and the sample centrifuged again at 10,000 rpm for 30 min at 5° C. to pellet the membrane fraction. This wash and centrifugation step is repeated another 4 times. The red blood cell membranes are then resuspended in 20 mL of PBS to achieve an equivalent of approximately 2.5E9 cells/mL and stored frozen at −20° C. Binding of antibodies to RBC ghost can be measured by ELISA in which the RBC ghost suspension (5×10⁶ in 100 ul PBS) was added to each well of flat bottom 96-well ELISA microtiter plates (2HB, Immunolon) and the plates incubated overnight at 4° C. The plates were blocked with Starting blocking buffer (Thermo Fisher) for 2 hours at room temperature (RT). Antibodies or other test molecules were added to each well and incubated for 1.5 hours at RT. After 4 washes 100 ul of an appropriate detection antibody was added to each well and incubated for 1 hour at RT. After 4 washes the detection antibody was measured using appropriate detection reagents.

| binding in ELISA relative to parental Fab | Binder |
| --- | --- |
| 0.7 relative to parental Fab | B5 |
| 4.7 relative to parental Fab | B6 |
| 9.3 relative to parental Fab | B7 |
| 6 relative to parental Fab | B8 |
| 0.9 relative to parental Fab | B9 |
| 9.1 relative to parental Fab | B10 |
| 0.8 relative to parental Fab | B11 |
| 7 relative to parental Fab | B12 |

Target: T4, native human glycophorin A protein
Experiment: ELISA, Fab on coated native human GPA

| binding in ELISA relative to parental Fab | Binder |
| --- | --- |
| 0.8 relative to parental Fab | B5 |
| 5.1 relative to parental Fab | B6 |
| 5.6 relative to parental Fab | B7 |
| 5.3 relative to parental Fab | B8 |
| 1 relative to parental Fab | B9 |
| 5.2 relative to parental Fab | B10 |
| 1.2 relative to parental Fab | B11 |
| 5.9 relative to parental Fab | B12 |

Target: T5, recombinant human glycophorin A …
Experiment: ELISA, Fab on coated recombinant human GPA ectodomain

| binding in ELISA relative to parental Fab | Binder |
| --- | --- |
| 1.1 relative to parental Fab | B5 |
| 4.1 relative to parental Fab | B6 |
| 4.7 relative to parental Fab | B7 |
| 4.2 relative to parental Fab | B8 |
| 1.1 relative to parental Fab | B9 |
| 4.5 relative to parental Fab | B10 |
| 1.1 relative to parental Fab | B11 |
| 4.7 relative to parental Fab | B12 |

Target: T6, human glycophorin A in the red blood …
Experiment: FACS, RBC Hu01
Procedure: as §1

| fluorescence intensity | Binder |
| --- | --- |
| 548 | B2 |
| 514 | B3 |

Target: T2, Rhesus monkey glycophorin A on Rhesus …
Experiment: FACS, RBC Rh03
Procedure: as §1

| fluorescence intensity | Binder |
| --- | --- |
| 1420 | B2 |
| 1480 | B3 |
| 1340 | B4 |

Target: T3, human glycophorin A on human red blood …
Experiment: SPR (Biacore), Fab over human RBC membranes, 1:1 fit;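 also: human RBC membrane preparations captured on an L1 sensor surface, with antibody passed over them as analyte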
Procedure: Kinetic analysis of the antibody binding to human red blood cell membranes was also performed using surface plasmon resonance (SPR) using a Biacore instrument. In this assay membranes prepared from human red blood cells were attached to a L1 sensor matrix and antibodies were flowed over the RBC membranes.

| Kd | koff | kon | Binder |
| --- | --- | --- | --- |
| 87 nM | 0.036 s⁻¹ | 420000 M⁻¹ s⁻¹ | B5 |
| 3.6 nM | 0.0042 s⁻¹ | 1.2e+06 M⁻¹ s⁻¹ | B6 |
| 3.1 nM | 0.004 s⁻¹ | 1.3e+06 M⁻¹ s⁻¹ | B7 |
| 4.1 nM | 0.0046 s⁻¹ | 1.1e+06 M⁻¹ s⁻¹ | B8 |
| 37 nM | 0.041 s⁻¹ | 1.1e+06 M⁻¹ s⁻¹ | B11 |
| 3.9 nM | 0.0059 s⁻¹ | 1.5e+06 M⁻¹ s⁻¹ | B12 |

Target: T7, Cynomolgus monkey recombinant glycophorin A ectodomain (Cynomolgus monkey)
T7 construct: extracellular domain
Experiment: ELISA, Fab on coated recombinant cyno GPA ectodomain

| binding in ELISA relative to parental Fab | Binder |
| --- | --- |
| 1 relative to parental Fab | B5 |
| 1 relative to parental Fab | B6 |
| 1.1 relative to parental Fab | B7 |
| 1 relative to parental Fab | B8 |
| 1 relative to parental Fab | B9 |
| 1.1 relative to parental Fab | B10 |
| 1.2 relative to parental Fab | B11 |
| 1.1 relative to parental Fab | B12 |

Target: T8, Cynomolgus monkey glycophorin A on Cynomolgus monkey red blood cells (Cynomolgus monkey)
T8 construct: whole, on cells; also called Cyno RBC; Cyno GPA
Experiment: FACS, RBC Cy02
Procedure: as §1

| fluorescence intensity | Binder |
| --- | --- |
| 1020 | B2 |
| 1080 | B3 |
| 1120 | B4 |

Target: T6, human glycophorin A in the red blood …
Experiment: FACS, RBC Hu03
Procedure: as §1

| fluorescence intensity | Binder |
| --- | --- |
| 387 | B2 |
| 384 | B3 |

Target: T6, human glycophorin A in the red blood …
Experiment: FACS, RBC Hu02
Procedure: as §1

| fluorescence intensity | Binder |
| --- | --- |
| 315 | B2 |
| 298 | B3 |

Target: T8, Cynomolgus monkey glycophorin A on …
Experiment: FACS, RBC Cy01
Procedure: as §1

| fluorescence intensity | Binder |
| --- | --- |
| 960 | B2 |
| 978 | B3 |
| 908 | B4 |
